{
  "source": "patent US20110269113A1",
  "about": "(University of Pennsylvania, published 2011)",
  "molecules": {"B1": {"name": "Compstatin, a 13-residue cyclic peptide (Ac-I[CVWQDWGAHRTC]TNH2) (peptide)", "peptide": "Ac-ICVWQDWGAHRTCT-NH2", "modifications": "disulfide 2-13", "SMILES": "CC[C@H](C)[C@H](NC(C)=O)C(=O)N[C@H]1CSSC[C@@H](C(=O)N[C@H](C(N)=O)[C@@H](C)O)NC(=O)[C@H]([C@@H](C)O)NC(=O)[C@H](CCCNC(=N)N)NC(=O)[C@H](Cc2c[nH]cn2)NC(=O)[C@H](C)NC(=O)CNC(=O)[C@H](Cc2c[nH]c3ccccc23)NC(=O)[C@H](CC(=O)O)NC(=O)[C@H](CCC(N)=O)NC(=O)[C@H](Cc2c[nH]c3ccccc23)NC(=O)[C@H](C(C)C)NC1=O"}},
  "key": {"[1]": {"molecular_target": "C5a receptor (C5aR) (human) (UniProt P21730)", "sequence (P21730 whole entry)": "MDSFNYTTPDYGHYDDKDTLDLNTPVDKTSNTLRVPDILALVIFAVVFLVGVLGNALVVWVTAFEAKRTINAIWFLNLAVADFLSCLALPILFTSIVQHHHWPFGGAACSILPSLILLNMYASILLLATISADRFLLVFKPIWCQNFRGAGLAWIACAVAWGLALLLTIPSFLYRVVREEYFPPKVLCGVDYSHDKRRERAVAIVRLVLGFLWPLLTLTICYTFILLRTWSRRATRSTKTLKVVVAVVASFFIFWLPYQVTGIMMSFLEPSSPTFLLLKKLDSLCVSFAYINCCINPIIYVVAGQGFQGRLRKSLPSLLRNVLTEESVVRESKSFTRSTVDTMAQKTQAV", "assay": "cell-based or functional assay"}, "[2]": {"molecular_target": "complement component C3 (native C3) (human, UniProt P01024 23-1663)", "sequence (P01024 23-1663 limits assumed)": "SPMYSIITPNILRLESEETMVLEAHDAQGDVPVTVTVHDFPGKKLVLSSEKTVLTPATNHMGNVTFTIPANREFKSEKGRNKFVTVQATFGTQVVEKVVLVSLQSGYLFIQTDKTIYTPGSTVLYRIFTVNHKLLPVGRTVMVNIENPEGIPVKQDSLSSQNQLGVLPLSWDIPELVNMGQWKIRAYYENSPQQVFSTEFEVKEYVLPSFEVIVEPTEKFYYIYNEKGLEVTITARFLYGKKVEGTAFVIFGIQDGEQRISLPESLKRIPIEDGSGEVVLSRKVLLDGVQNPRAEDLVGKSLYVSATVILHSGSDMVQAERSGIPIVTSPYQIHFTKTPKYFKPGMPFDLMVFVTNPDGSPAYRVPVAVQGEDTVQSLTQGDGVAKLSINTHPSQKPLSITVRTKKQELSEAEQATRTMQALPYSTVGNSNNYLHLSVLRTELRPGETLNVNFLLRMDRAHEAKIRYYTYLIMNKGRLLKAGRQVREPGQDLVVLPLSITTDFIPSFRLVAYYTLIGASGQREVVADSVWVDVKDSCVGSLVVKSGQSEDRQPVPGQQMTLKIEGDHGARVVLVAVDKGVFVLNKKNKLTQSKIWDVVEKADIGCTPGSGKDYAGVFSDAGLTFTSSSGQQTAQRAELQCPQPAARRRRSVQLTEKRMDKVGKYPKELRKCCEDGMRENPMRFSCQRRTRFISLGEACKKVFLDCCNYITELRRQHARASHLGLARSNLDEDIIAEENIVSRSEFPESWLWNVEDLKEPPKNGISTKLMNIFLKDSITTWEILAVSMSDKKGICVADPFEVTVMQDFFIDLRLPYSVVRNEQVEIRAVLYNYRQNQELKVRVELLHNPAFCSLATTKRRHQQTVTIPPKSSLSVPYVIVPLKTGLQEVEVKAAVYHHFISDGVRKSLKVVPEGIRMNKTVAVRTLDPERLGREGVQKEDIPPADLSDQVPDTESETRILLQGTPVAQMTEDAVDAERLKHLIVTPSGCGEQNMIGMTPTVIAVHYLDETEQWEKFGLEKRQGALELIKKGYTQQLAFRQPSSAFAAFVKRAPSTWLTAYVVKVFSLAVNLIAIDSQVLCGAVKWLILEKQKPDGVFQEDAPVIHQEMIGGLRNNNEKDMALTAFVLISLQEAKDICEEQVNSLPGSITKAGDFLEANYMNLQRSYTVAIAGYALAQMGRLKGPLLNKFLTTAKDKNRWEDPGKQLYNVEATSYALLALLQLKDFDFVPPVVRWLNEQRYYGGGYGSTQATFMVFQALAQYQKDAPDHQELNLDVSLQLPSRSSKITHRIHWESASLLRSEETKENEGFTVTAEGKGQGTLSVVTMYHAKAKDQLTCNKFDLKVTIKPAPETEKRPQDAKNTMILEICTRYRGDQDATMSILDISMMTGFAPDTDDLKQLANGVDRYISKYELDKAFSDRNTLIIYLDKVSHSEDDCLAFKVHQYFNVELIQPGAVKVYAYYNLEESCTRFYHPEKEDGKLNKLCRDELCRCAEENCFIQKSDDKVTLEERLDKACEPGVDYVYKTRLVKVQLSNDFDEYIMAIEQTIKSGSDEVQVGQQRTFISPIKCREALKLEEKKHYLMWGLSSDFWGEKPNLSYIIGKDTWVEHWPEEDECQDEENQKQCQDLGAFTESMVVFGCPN", "assay": "cell-based or functional assay"}},
  "note": "Bridges are numbered along the chain shown (N, C = ends).",
  "data": [
    {"molecule": "small cyclic hexapeptide (AcF-[OPdChaWR]), selective C5aR antagonist", "values": [
      {"measurement": "TF mRNA expression in PMNs (real time RT-PCR) after C5aR antagonism (fold decrease)", "setting": "[1]", "value": 2.14},
      {"measurement": "modified prothrombin time (mPT) of PMN supernatants; healthy serum preincubated with filter fibers, with C5aR antagonist", "setting": "[1]", "value": 29.1, "unit": "s"},
      {"measurement": "modified prothrombin time (mPT) of PMN supernatants; predialysis ESRD serum preincubated with filter fibers, with C5aR antagonist", "setting": "[1]", "value": 26.1, "unit": "s"},
      {"measurement": "modified prothrombin time (mPT) of supernatants of PMNs preincubated with C5aR antagonist (10 µM-30 min)", "setting": "[1]", "value": 31.6, "unit": "s"}
    ]},
    {"molecule": "B1", "values": [
      {"measurement": "TF mRNA expression in PMNs (real time RT-PCR) after Compstatin addition", "setting": "[2]", "value": 2.79, "unit": "fold decrease"},
      {"measurement": "intracellular TF protein in PMNs, MFI fold expression (flow cytometry); fiber-activated healthy serum blocked with Compstatin", "setting": "[2]", "value": 1.01, "unit": "MFI fold expression"}
    ]}
  ]
}
